# Source: IntAct's records for PubMed 17641689
# B1: Retinoic acid receptor RXR-alpha (Mus musculus), P28700 (parent)
# chain: MDTKHFLPLDFSTQVNSSSLNSPTGRGSMAVPSLHPSLGPGIGSPLGSPGQLHSPISTLSSPINGMGPPFSVISSPMGPHSMSVPTTPTLGFGTGSPQLNSPMNPVSSTEDIKPPLGLNGVLKVPAHPSGNMASFTKHICAICGDRSSGKHYGVYSCEGCKGFFKRTVRKDLTYTCRDNKDCLIDKRQRNRCQYCRYQKCLAMGMKREAVQEERQRGKDRNENEVESTSSANEDMPVEKILEAELAVEPKTETYVEANMGLNPSSPNDPVTNICQAADKQLFTLVEWAKRIPHFSELPLDDQVILLRAGWNELLIASFSHRSIAVKDGILLATGLHVHRNSAHSAGVGAIFDRVLTELVSKMRDMQMDKTELGCLRAIVLFNPDSKGLSNPAEVEALREKVYASLEAYCKHKYPEQPGRFAKLLLRLPALRSIGLKCLEHLFFFKLIGDTPIDTFLMEMLEAPHQAT
# partner: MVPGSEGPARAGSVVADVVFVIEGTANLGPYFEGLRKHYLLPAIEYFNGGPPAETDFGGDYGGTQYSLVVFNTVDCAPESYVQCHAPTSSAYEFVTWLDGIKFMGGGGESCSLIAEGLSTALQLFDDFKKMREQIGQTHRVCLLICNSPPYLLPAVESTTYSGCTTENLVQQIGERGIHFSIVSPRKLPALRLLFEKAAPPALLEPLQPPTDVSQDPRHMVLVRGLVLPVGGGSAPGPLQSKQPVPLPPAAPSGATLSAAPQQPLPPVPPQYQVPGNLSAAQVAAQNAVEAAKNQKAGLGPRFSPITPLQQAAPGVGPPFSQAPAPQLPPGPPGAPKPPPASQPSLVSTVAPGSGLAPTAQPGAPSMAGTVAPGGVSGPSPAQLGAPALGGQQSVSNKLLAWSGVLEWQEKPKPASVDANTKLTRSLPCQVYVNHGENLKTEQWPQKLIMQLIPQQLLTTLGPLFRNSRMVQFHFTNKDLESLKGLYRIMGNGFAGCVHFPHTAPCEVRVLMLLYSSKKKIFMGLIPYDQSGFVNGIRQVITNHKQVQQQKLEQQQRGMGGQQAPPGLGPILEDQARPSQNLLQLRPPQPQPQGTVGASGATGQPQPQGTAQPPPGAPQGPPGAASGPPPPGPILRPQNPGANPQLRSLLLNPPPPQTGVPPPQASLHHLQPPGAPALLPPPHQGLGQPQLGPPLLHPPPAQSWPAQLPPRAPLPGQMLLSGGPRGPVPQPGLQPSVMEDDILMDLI
# B2: Retinoic acid receptor alpha (Homo sapiens), P10276 (parent)
# chain: MASNSSSCPTPGGGHLNGYPVPPYAFFFPPMLGGLSPPGALTTLQHQLPVSGYSTPSPATIETQSSSSEEIVPSPPSPPPLPRIYKPCFVCQDKSSGYHYGVSACEGCKGFFRRSIQKNMVYTCHRDKNCIINKVTRNRCQYCRLQKCFEVGMSKESVRNDRNKKKKEVPKPECSESYTLTPEVGELIEKVRKAHQETFPALCQLGKYTTNNSSEQRVSLDIDLWDKFSELSTKCIIKTVEFAKQLPGFTTLTIADQITLLKAACLDILILRICTRYTPEQDTMTFSDGLTLNRTQMHNAGFGPLTDLVFAFANQLLPLEMDDAETGLLSAICLICGDRQDLEQPDRVDMLQEPLLEALKVYVRKRRPSRPHMFPKMLMKITDLRSISAKGAERVITLKMEIPGSMPPLIQEMLENSEGLDTLSGQPGGGGRDGGGLAPPPGSCSPSLSPSSNRSSPATHSP
# partner: B1 partner
# Variants of: B1
# Conditions: with med25_human MED25, Q71SY5
row,Variant,effect of a mutation on the interaction
1,MDTKHFLPLDFSTQVNSSSLNSPTGRGSMAVPSLHPSLGPGIGSPLGSPGQLHSPISTLSSPINGMGPPFSVISSPMGPHSMSVPTTPTLGFGTGSPQLNSPMNPVSSTEDIKPPLGLNGVLKVPAHPSGNMASFTKHICAICGDRSSGKHYGVYSCEGCKGFFKRTVRKDLTYTCRDNKDCLIDKRQRNRCQYCRYQKCLAMGMKREAVQEERQRGKDRNENEVESTSSANEDMPVEKILEAELAVEPKTETYVEANMGLNPSSPNDPVTNICQAADKQLFTLVEWAKRIPHFSELPLDDQVILLRAGWNELLIASFSHRSIAVKDGILLATGLHVHRNSAHSAGVGAIFDRVLTELVSKMRDMQMDKTELGCLRAIVLFNPDSKGLSNPAEVEALREKVYASLEAYCKHKYPEQPGRFAKLLLRLPALRSIGLKCLEHLFFFKLIGDTPIDTALMEMLEAPHQAT [F455A],disrupting interaction

# Variants of: B1
# Conditions: with med25_human MED25, Q71SY5
# Remark: another data set of the same source
row,Variant,effect of a mutation on the interaction
1,MDTKHFLPLDFSTQVNSSSLNSPTGRGSMAVPSLHPSLGPGIGSPLGSPGQLHSPISTLSSPINGMGPPFSVISSPMGPHSMSVPTTPTLGFGTGSPQLNSPMNPVSSTEDIKPPLGLNGVLKVPAHPSGNMASFTKHICAICGDRSSGKHYGVYSCEGCKGFFKRTVRKDLTYTCRDNKDCLIDKRQRNRCQYCRYQKCLAMGMKREAVQEERQRGKDRNENEVESTSSANEDMPVEKILEAELAVEPKTETYVEANMGLNPSSPNDPVTNICQAADKQLFTLVEWAKRIPHFSELPLDDQVILLRAGWNELLIASFSHRSIAVKDGILLATGLHVHRNSAHSAGVGAIFDRVLTELVSKMRDMQMDKTELGCLRAIVLFNPDSKGLSNPAEVEALREKVYASLEAYCKHKYPEQPGRFAKLLLRLPALRSIGLKCLEHLFFFKLIGDTPIDTFLMEALEAPHQAT [M459A],disrupting interaction
2,MDTKHFLPLDFSTQVNSSSLNSPTGRGSMAVPSLHPSLGPGIGSPLGSPGQLHSPISTLSSPINGMGPPFSVISSPMGPHSMSVPTTPTLGFGTGSPQLNSPMNPVSSTEDIKPPLGLNGVLKVPAHPSGNMASFTKHICAICGDRSSGKHYGVYSCEGCKGFFKRTVRKDLTYTCRDNKDCLIDKRQRNRCQYCRYQKCLAMGMKREAVQEERQRGKDRNENEVESTSSANEDMPVEKILEAELAVEPKTETYVEANMGLNPSSPNDPVTNICQAADKQLFTLVEWAKRIPHFSELPLDDQVILLRAGWNELLIASFSHRSIAVKDGILLATGLHVHRNSAHSAGVGAIFDRVLTELVSKMRDMQMDKTELGCLRAIVLFNPDSKGLSNPAEVEALREKVYASLEAYCKHKYPEQPGRFAKLLLRLPALRSIGLKCLEHLFFFKLIGDTPIDTFLMEMAEAPHQAT [L460A],disrupting interaction

# Variants of: B1
# Conditions: with med25_human MED25, Q71SY5
# Remark: another data set of the same source
row,Variant,effect of a mutation on the interaction
1,MDTKHFLPLDFSTQVNSSSLNSPTGRGSMAVPSLHPSLGPGIGSPLGSPGQLHSPISTLSSPINGMGPPFSVISSPMGPHSMSVPTTPTLGFGTGSPQLNSPMNPVSSTEDIKPPLGLNGVLKVPAHPSGNMASFTKHICAICGDRSSGKHYGVYSCEGCKGFFKRTVRKDLTYTCRDNKDCLIDKRQRNRCQYCRYQKCLAMGMKREAVQEERQRGKDRNENEVESTSSANEDMPVEKILEAELAVEPKTETYVEANMGLNPSSPNDPVTNICQAADKQLFTLVEWAKRIPHFSELPLDDQVILLRAGWNELLIASFSHRSIAVKDGILLATGLHVHRNSAHSAGVGAIFDRVLTELVSKMRDMQMDKTELGCLRAIVLFNPDSKGLSNPAEVEALREKVYASLEAYCKHKYPEQPGRFAKLLLRLPALRSIGLKCLEHLFFFKLIGDTPIDTFLMEMLQAPHQAT [E461Q],decreasing interaction

# Variants of: B2
# Conditions: with med25_human MED25, Q71SY5
row,Variant,effect of a mutation on the interaction
1,MASNSSSCPTPGGGHLNGYPVPPYAFFFPPMLGGLSPPGALTTLQHQLPVSGYSTPSPATIETQSSSSEEIVPSPPSPPPLPRIYKPCFVCQDKSSGYHYGVSACEGCKGFFRRSIQKNMVYTCHRDKNCIINKVTRNRCQYCRLQKCFEVGMSKESVRNDRNKKKKEVPKPECSESYTLTPEVGELIEKVRKAHQETFPALCQLGKYTTNNSSEQRVSLDIDLWDKFSELSTKCIIKTVEFAKQLPGFTTLTIADQITLLKAACLDILILRICTRYTPEQDTMTFSDGLTLNRTQMHNAGFGPLTDLVFAFANQLLPLEMDDAETGLLSAICLICGDRQDLEQPDRVDMLQEPLLEALKVYVRKRRPSRPHMFPKMLMKITDLRSISAKGAERVITLKMEIPGSMPPLIQEALENSEGLDTLSGQPGGGGRDGGGLAPPPGSCSPSLSPSSNRSSPATHSP [M413A],disrupting interaction
2,MASNSSSCPTPGGGHLNGYPVPPYAFFFPPMLGGLSPPGALTTLQHQLPVSGYSTPSPATIETQSSSSEEIVPSPPSPPPLPRIYKPCFVCQDKSSGYHYGVSACEGCKGFFRRSIQKNMVYTCHRDKNCIINKVTRNRCQYCRLQKCFEVGMSKESVRNDRNKKKKEVPKPECSESYTLTPEVGELIEKVRKAHQETFPALCQLGKYTTNNSSEQRVSLDIDLWDKFSELSTKCIIKTVEFAKQLPGFTTLTIADQITLLKAACLDILILRICTRYTPEQDTMTFSDGLTLNRTQMHNAGFGPLTDLVFAFANQLLPLEMDDAETGLLSAICLICGDRQDLEQPDRVDMLQEPLLEALKVYVRKRRPSRPHMFPKMLMKITDLRSISAKGAERVITLKMEIPGSMPPLIQEMAENSEGLDTLSGQPGGGGRDGGGLAPPPGSCSPSLSPSSNRSSPATHSP [L414A],disrupting interaction

# Variants of: B2
# Conditions: with med25_human MED25, Q71SY5
# Remark: another data set of the same source
row,Variant,effect of a mutation on the interaction
1,MASNSSSCPTPGGGHLNGYPVPPYAFFFPPMLGGLSPPGALTTLQHQLPVSGYSTPSPATIETQSSSSEEIVPSPPSPPPLPRIYKPCFVCQDKSSGYHYGVSACEGCKGFFRRSIQKNMVYTCHRDKNCIINKVTRNRCQYCRLQKCFEVGMSKESVRNDRNKKKKEVPKPECSESYTLTPEVGELIEKVRKAHQETFPALCQLGKYTTNNSSEQRVSLDIDLWDKFSELSTKCIIKTVEFAKQLPGFTTLTIADQITLLKAACLDILILRICTRYTPEQDTMTFSDGLTLNRTQMHNAGFGPLTDLVFAFANQLLPLEMDDAETGLLSAICLICGDRQDLEQPDRVDMLQEPLLEALKVYVRKRRPSRPHMFPKMLMKITDLRSISAKGAERVITLKMEIPGSMPPLAQEMLENSEGLDTLSGQPGGGGRDGGGLAPPPGSCSPSLSPSSNRSSPATHSP [I410A],disrupting interaction
2,MASNSSSCPTPGGGHLNGYPVPPYAFFFPPMLGGLSPPGALTTLQHQLPVSGYSTPSPATIETQSSSSEEIVPSPPSPPPLPRIYKPCFVCQDKSSGYHYGVSACEGCKGFFRRSIQKNMVYTCHRDKNCIINKVTRNRCQYCRLQKCFEVGMSKESVRNDRNKKKKEVPKPECSESYTLTPEVGELIEKVRKAHQETFPALCQLGKYTTNNSSEQRVSLDIDLWDKFSELSTKCIIKTVEFAKQLPGFTTLTIADQITLLKAACLDILILRICTRYTPEQDTMTFSDGLTLNRTQMHNAGFGPLTDLVFAFANQLLPLEMDDAETGLLSAICLICGDRQDLEQPDRVDMLQEPLLEALKVYVRKRRPSRPHMFPKMLMKITDLRSISAKGAERVITLKMEIPGSMPPAIQEMLENSEGLDTLSGQPGGGGRDGGGLAPPPGSCSPSLSPSSNRSSPATHSP [L409A],disrupting interaction

# Variants of: B2
# Conditions: with med25_human MED25, Q71SY5
# Remark: another data set of the same source
row,Variant,effect of a mutation on the interaction
1,MASNSSSCPTPGGGHLNGYPVPPYAFFFPPMLGGLSPPGALTTLQHQLPVSGYSTPSPATIETQSSSSEEIVPSPPSPPPLPRIYKPCFVCQDKSSGYHYGVSACEGCKGFFRRSIQKNMVYTCHRDKNCIINKVTRNRCQYCRLQKCFEVGMSKESVRNDRNKKKKEVPKPECSESYTLTPEVGELIEKVRKAHQETFPALCQLGKYTTNNSSEQRVSLDIDLWDKFSELSTKCIIKTVEFAKQLPGFTTLTIADQITLLKAACLDILILRICTRYTPEQDTMTFSDGLTLNRTQMHNAGFGPLTDLVFAFANQLLPLEMDDAETGLLSAICLICGDRQDLEQPDRVDMLQEPLLEALKVYVRKRRPSRPHMFPKMLMKITDLRSISAKGAERVITLKMEIPGSMPPLIQEMLQNSEGLDTLSGQPGGGGRDGGGLAPPPGSCSPSLSPSSNRSSPATHSP [E415Q],disrupting interaction
2,MASNSSSCPTPGGGHLNGYPVPPYAFFFPPMLGGLSPPGALTTLQHQLPVSGYSTPSPATIETQSSSSEEIVPSPPSPPPLPRIYKPCFVCQDKSSGYHYGVSACEGCKGFFRRSIQKNMVYTCHRDKNCIINKVTRNRCQYCRLQKCFEVGMSKESVRNDRNKKKKEVPKPECSESYTLTPEVGELIEKVRKAHQETFPALCQLGKYTTNNSSEQRVSLDIDLWDKFSELSTKCIIKTVEFAKQLPGFTTLTIADQITLLKAACLDILILRICTRYTPEQDTMTFSDGLTLNRTQMHNAGFGPLTDLVFAFANQLLPLEMDDAETGLLSAICLICGDRQDLEQPDRVDMLQEPLLEALKVYVRKRRPSRPHMFPKMLMKITDLRSISAKGAERVITLKMEIPGSMPPLIQQMLENSEGLDTLSGQPGGGGRDGGGLAPPPGSCSPSLSPSSNRSSPATHSP [E412Q],disrupting interaction
